Source: patent US20080292662A1

Target: Rhodanese (Sigma), denatured in 8 M urea (UniProt P00586)
Experiment: cell-based or functional assay

Chain of UniProt P00586 (P00586 2-297 limits assumed): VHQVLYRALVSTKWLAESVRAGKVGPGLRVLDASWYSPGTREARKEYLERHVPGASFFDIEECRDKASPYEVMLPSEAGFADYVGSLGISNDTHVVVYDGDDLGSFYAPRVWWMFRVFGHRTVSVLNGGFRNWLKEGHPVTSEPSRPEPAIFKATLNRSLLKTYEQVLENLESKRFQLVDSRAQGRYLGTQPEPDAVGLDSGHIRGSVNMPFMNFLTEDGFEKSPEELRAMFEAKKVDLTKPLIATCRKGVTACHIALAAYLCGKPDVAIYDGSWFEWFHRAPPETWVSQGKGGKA

Substance: Histidine-tagged ClpL of Streptococcus pneumoniae (from pKHY004, expressed in E. coli)
- Rhodanese activity (%) after refolding with ClpL 90 Nm: 9%
